Two proteins from US20190233808 can be followed below.

Numbering of substitutions follows the chain as printed. Names and notes keep the numbering of the source.

For data set [1], the target named is FITC-labeled bovine type-1 collagen (Chondrex, Cat# 4001), P02453.
Data set [2] addresses T1, synthetic MMP1 substrate MCA-Lys-Pro-Leu-Gly-Leu-DPA-Ala-Arg-NH2 (R&D Systems, Cat# ES010).
T1 chain: KPLGLXAR

Sequence of FITC-labeled bovine type-1 collagen (Chondrex, Cat# 4001), P02453 (P02453 162-1217, chain 1 of 2): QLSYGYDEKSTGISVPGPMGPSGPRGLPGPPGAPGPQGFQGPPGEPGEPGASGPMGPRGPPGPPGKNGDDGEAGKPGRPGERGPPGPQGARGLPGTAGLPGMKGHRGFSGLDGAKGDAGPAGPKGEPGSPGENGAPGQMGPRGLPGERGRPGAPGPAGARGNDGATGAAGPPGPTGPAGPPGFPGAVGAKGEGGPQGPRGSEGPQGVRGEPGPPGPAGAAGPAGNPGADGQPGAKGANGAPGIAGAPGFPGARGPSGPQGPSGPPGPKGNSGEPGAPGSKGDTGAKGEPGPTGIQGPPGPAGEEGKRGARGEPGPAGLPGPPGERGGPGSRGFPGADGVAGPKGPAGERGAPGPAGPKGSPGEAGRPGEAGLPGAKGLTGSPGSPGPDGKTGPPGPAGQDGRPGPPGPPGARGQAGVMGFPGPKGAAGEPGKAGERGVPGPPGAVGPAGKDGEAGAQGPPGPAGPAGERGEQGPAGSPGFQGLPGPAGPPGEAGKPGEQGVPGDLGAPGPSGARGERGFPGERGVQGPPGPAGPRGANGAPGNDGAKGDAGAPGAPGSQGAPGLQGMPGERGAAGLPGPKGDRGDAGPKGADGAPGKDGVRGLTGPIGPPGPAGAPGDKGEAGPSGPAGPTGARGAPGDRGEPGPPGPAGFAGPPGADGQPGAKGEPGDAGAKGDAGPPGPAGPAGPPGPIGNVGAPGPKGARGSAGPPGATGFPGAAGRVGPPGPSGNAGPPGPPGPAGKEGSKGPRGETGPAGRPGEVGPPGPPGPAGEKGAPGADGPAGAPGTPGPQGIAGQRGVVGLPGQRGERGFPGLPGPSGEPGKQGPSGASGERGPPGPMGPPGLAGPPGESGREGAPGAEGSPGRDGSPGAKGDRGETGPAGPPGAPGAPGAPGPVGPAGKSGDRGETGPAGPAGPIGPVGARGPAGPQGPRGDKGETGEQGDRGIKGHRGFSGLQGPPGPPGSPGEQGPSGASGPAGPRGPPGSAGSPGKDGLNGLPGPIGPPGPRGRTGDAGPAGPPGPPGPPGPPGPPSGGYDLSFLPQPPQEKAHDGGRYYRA
Sequence of FITC-labeled bovine type-1 collagen (Chondrex, Cat# 4001), P02453 (P02453 other isoform, or with tags, fused parts or gaps, chain 2 of 2): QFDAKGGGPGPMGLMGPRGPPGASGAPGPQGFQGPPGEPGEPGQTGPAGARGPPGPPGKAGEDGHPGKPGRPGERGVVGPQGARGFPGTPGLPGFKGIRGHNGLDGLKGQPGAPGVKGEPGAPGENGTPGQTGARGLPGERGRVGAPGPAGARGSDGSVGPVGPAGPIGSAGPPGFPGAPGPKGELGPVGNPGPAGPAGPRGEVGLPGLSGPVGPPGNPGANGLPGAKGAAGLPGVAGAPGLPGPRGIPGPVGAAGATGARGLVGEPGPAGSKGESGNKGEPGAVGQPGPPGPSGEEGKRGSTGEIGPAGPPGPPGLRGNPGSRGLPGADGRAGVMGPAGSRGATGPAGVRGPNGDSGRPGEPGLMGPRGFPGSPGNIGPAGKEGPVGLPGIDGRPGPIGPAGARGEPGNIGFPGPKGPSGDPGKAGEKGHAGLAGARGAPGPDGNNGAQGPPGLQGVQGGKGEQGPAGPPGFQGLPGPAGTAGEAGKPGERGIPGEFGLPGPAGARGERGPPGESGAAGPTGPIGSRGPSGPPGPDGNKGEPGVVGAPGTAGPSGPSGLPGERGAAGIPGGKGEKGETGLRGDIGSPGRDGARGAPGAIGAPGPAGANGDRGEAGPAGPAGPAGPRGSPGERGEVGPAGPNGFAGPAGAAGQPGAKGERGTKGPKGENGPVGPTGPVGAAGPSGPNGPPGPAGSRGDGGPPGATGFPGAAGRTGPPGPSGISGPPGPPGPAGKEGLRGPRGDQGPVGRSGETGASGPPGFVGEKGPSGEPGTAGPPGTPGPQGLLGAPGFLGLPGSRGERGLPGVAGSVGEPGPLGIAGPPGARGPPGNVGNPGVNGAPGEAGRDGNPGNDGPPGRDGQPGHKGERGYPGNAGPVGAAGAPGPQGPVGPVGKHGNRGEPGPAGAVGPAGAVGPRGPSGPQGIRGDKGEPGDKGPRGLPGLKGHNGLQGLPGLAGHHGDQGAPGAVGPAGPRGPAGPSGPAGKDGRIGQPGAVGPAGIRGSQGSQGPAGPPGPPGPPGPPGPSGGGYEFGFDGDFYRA

B1: trypsin-activated MMP1 (43 kD active human matrix metalloproteinase-1) (protein)
chain: VLTEGNPRWEQTHLTYRIENYTPDLPRADVDHAIEKAFQLWSNVTPLTFTKVSEGQADIMISFVRGDHRDNSPFDGPGGNLAHAFQPGPGIGGDAHFDEDERWTNNFREYNLHRVAAHELGHSLGLSHSTDIGALMYPSYTFSGDVQLAQDDIDGIQAIYGRSQNPVQPIGPQTPKACDSKLTFDAITTIRGEVMFFKDRFYMRTNPFYPEVELNFISVFWPQLPNGLEAAYEFADRDEVRFFKGNKYWAVQGQNVLHGYPKDIYSSFGFPRTVKHIDAALSEENTGKTYFFVANKYWRYDEYKRSMDPGYPKMIAHDFPGIGHKVDAVFMKDGFFYFFHGTRQYKFDPKTKRILTLQKANSWFNCRKN
For B1, in data set [1], the “collagen cleavage on SDS PAGE” value was “active MMP1 cleaves type-1 collagen into ¾ and ¼ fragments”; the “kcat (weight-based collagen degradation assay)” value is on record as ~19 monomers per MMP1 per hour; the kcat/MMP1/hr using 1 mg/ml concentration (+MMP1 for 1 hr) is 0.5 /MMP1/hr; the kcat/MMP1/hr using 1 mg/ml concentration (+MMP1 for 2 hr) was 0.21 /MMP1/hr. In addition, in data set [1], the kcat/MMP1/hr using 1 mg/ml concentration (+MMP1 for 3 hr) is 0.19 /MMP1/hr, the kcat/MMP1/hr using 1 mg/ml concentration (+MMP1 for 4 hr) was 0.15 /MMP1/hr, the kcat/MMP1/hr using 1 mg/ml concentration (+MMP1 for 5 hr) is 0.14 /MMP1/hr and the kcat/MMP1/hr using 1 mg/ml concentration (+MMP1 for 6 hr) was 0.11 /MMP1/hr. Besides, in data set [1], the kcat/MMP1/hr using 1 mg/ml concentration (+MMP1 for 7 hr) is 0.1 /MMP1/hr, the kcat/MMP1/hr using 1 mg/ml concentration (+MMP1 for 8 hr) was 0.1 /MMP1/hr, the kcat/MMP1/hr using 1 mg/ml concentration (+MMP1 for 9 hr) is 0.09 /MMP1/hr and the kcat/MMP1/hr using 1 mg/ml concentration (+MMP1 for 10 hr) was 0.09 /MMP1/hr. In data set [1], the kcat/MMP1/hr using 114.2 mg/ml concentration (+MMP1 for 1 hr) was 58 /MMP1/hr, the kcat/MMP1/hr using 114.2 mg/ml concentration (+MMP1 for 2 hr) was 24 /MMP1/hr, the kcat/MMP1/hr using 114.2 mg/ml concentration (+MMP1 for 3 hr) is 22 /MMP1/hr and the kcat/MMP1/hr using 114.2 mg/ml concentration (+MMP1 for 4 hr) is 17 /MMP1/hr. Moreover, in data set [1], the kcat/MMP1/hr using 114.2 mg/ml concentration (+MMP1 for 5 hr) was 16 /MMP1/hr, the kcat/MMP1/hr using 114.2 mg/ml concentration (+MMP1 for 6 hr) was 13 /MMP1/hr, the kcat/MMP1/hr using 114.2 mg/ml concentration (+MMP1 for 7 hr) was 11 /MMP1/hr and the kcat/MMP1/hr using 114.2 mg/ml concentration (+MMP1 for 8 hr) is 11 /MMP1/hr. In data set [1], the kcat/MMP1/hr using 114.2 mg/ml concentration (+MMP1 for 9 hr) is 10 /MMP1/hr and the kcat/MMP1/hr using 114.2 mg/ml concentration (+MMP1 for 10 hr) is 10 /MMP1/hr. Besides, in data set [2], the “reaction rate k (RFU of degraded substrate by 0.05 µg MMP1)” value was “k=0.26±0.02 RFU/min”; the “specific activity (RFU)” value was “k/0.05=5.2 RFU/min/µg”; the “specific activity (fluorogenic peptide substrate, 37° C.)” value is given as approximately 999 pmol/min/µg.

B2: catalytically inactive mutant MMP1 (E219Q) (protein)
chain: B1 chain with E119Q
B2: the “collagen degradation on SDS PAGE” value in data set [1] was “did not show degradation of type-1 collagen”.
